Experimental data taken from patent US20230039851A1 (ARO BIOTHERAPEUTICS, published 2023).
Positions count from the first letter of the chain named. In names and notes the source's numbering stands.

B1: A10V, A79S (designed binder)
chain: MLPAPKNLVVSRVTEDSARLSWTAPDAAFDSFNIAYWEPGIGGEAIWLRVPGSERSYDLTGLKPGTEYKVWIHGVKGGSSSPPLIARFTT
notes: Variant of B7; not shown: His tag: FN3 domains were purified as His-tagged proteins
B2: A10V, W37A (designed binder)
chain: B1 chain with W37A, S79A
notes: as for B1
B3: A10V, N33A (designed binder)
chain: B1 chain with N33A, S79A
notes: as for B1
B4: A10V, I85A (designed binder)
chain: B1 chain with S79A, I85A
notes: as for B1
B5: A10V, W71A (designed binder)
chain: B1 chain with W71A, S79A
notes: as for B1
B6: A10V, W47A (designed binder)
chain: B1 chain with W47A, S79A
notes: as for B1
B7: A10V, H73A (designed binder)
chain: B1 chain with H73A, S79A
notes: as for B1
B8: wt Tencon (designed binder)
chain: LPAPKNLVVSEVTEDSLRLSWTAPDAAFDSFLIQYQESEKVGEAINLTVPGSERSYDLTGLKPGTEYTVSIYGVKGGHRSNPLSAEFTT
notes: also called wild type tencon
B9: A10V (designed binder)
chain: B1 chain with S79A
notes: Variant of B7; also called B7 A10V; not shown: His tag: FN3 domains were purified as His-tagged proteins
B10: A10V, R87A (designed binder)
chain: B1 chain with S79A, R87A
notes: as for B1
B11: A10V, P39A (designed binder)
chain: B1 chain with P39A, S79A
notes: as for B1
B12: A10V, A35S (designed binder)
chain: B1 chain with A35S, S79A
notes: as for B1
B13: A10V, G42A (designed binder)
chain: B1 chain with G42A, S79A
notes: as for B1
B14: A10V, S80A (designed binder)
chain: B1 chain with S79A, S80A
notes: as for B1
B15: A10V, I41A (designed binder)
chain: B1 chain with I41A, S79A
notes: as for B1
B16: A10V, R49A (designed binder)
chain: B1 chain with R49A, S79A
notes: as for B1
B17: A10V, P82A (designed binder)
chain: B1 chain with S79A, P82A
notes: as for B1
B18: A10V, K69A (designed binder)
chain: B1 chain with K69A, S79A
notes: as for B1
B19: A10V, G40A (designed binder)
chain: B1 chain with G40A, S79A
notes: as for B1
B20: B7 (designed binder)
chain: B1 chain with V10A, S79A
notes: FN3 domain (Tencon27-based library clone) expressed in E. coli; also called ALB40; not shown: His tag: FN3 domains were purified as His-tagged proteins

Target: T1, Human Serum Albumin (human, UniProt P02768 25-609)
T1 construct: ELISA: albumin coated on plates; pull-down: endogenous albumin in normal human serum; also called HSA; Human SA
Assay: pull-down of endogenous albumin from human serum

T1 sequence (P02768 25-609 limits assumed): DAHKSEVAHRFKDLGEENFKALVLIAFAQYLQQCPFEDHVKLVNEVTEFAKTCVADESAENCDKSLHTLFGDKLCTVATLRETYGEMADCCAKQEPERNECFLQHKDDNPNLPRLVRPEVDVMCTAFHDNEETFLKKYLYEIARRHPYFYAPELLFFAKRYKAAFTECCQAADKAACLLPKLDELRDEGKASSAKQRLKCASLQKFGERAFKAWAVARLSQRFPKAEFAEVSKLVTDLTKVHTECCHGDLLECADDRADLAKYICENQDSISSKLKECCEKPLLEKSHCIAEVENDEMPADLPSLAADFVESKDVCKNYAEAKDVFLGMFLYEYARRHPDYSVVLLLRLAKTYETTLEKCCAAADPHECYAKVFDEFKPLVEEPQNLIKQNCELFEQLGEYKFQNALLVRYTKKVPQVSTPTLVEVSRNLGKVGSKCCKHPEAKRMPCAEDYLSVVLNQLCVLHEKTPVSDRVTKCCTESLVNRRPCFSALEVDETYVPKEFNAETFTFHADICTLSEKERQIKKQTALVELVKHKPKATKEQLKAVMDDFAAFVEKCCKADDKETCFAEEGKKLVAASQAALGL

Row | binding result | Binder
1 | no binding | B1
2 | no binding | B2
3 | no binding | B3
4 | no binding | B4
5 | no binding | B5
6 | no binding | B6
7 | no binding | B7

Target: T1, Human Serum Albumin
Assay: ELISA, 667 nM FN3 protein on immobilized human albumin
Method: (§1) The FN3 proteins were also tested in an ELISA assay to determine their ability to bind to immobilized human or cynomolgous albumin. The binding of 667 nM B7 and B7 variants to human or cynomolgous albumin are illustrated in Table 7. The negative control is wt Tencon.

Row | Human Albumin (RLU) | Binder
8 | 8350 RLU | B8
9 | 23100 RLU | B9
10 | 47400 RLU | B10
11 | 107000 RLU | B11
12 | 2950 RLU | B12
13 | 4480 RLU | B13
14 | 2950 RLU | B14
15 | 50600 RLU | B15
16 | 250 RLU | B1
17 | 600 RLU | B2
18 | 2350 RLU | B3
19 | 1000 RLU | B4
20 | 950 RLU | B5
21 | 1020 RLU | B16
22 | 21700 RLU | B17
23 | 15900 RLU | B18
24 | 69800 RLU | B19
25 | 97400 RLU | B20
26 | 2100 RLU | B6
27 | 550 RLU | B7

Target: T1, Human Serum Albumin
Assay: ELISA on immobilized human albumin
Method: as §1

Row | binding result | Binder
28 | no binding (tested: 667 nM) | B8

Target: T2, Cynomolgus Serum Albumin (cynomolgus monkey, UniProt A2V9Z4 25-608)
T2 construct: ELISA: albumin coated on plates; pull-down: endogenous albumin in cynomolgus serum; also called cSA; Cyno SA
Assay: pull-down of endogenous albumin from cynomolgus serum

T2 sequence (A2V9Z4 25-608 limits assumed): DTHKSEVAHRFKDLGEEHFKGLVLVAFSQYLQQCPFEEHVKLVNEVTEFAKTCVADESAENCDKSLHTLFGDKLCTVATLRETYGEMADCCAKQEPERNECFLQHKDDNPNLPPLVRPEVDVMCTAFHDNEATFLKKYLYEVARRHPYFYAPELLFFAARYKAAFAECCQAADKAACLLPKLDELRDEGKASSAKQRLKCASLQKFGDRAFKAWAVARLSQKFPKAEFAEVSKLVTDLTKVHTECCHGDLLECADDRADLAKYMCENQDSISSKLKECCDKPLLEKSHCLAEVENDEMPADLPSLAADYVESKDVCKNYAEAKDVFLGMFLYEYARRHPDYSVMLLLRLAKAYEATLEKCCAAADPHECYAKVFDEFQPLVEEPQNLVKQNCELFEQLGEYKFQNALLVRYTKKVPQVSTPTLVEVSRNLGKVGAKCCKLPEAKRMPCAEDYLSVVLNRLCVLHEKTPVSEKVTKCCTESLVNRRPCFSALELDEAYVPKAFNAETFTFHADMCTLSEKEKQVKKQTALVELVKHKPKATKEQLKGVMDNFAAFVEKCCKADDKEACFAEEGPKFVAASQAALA

Row | binding result | Binder
29 | no binding | B2
30 | no binding | B3
31 | no binding | B4
32 | no binding | B5
33 | no binding | B6
34 | no binding | B7

Target: T2, Cynomolgus Serum Albumin
Assay: ELISA, 667 nM FN3 protein on immobilized cynomolgus albumin
Method: as §1

Row | Cyno Albumin (RLU) | Binder
35 | 775 RLU | B8
36 | 43600 RLU | B9
37 | 66300 RLU | B10
38 | 73600 RLU | B11
39 | 2950 RLU | B12
40 | 9180 RLU | B13
41 | 2950 RLU | B14
42 | 46200 RLU | B15
43 | 9200 RLU | B1
44 | 500 RLU | B2
45 | 1500 RLU | B3
46 | 2500 RLU | B4
47 | 1600 RLU | B5
48 | 1150 RLU | B16
49 | 24100 RLU | B17
50 | 42300 RLU | B18
51 | 64400 RLU | B19
52 | 145000 RLU | B20
53 | 2000 RLU | B6
54 | 600 RLU | B7

Target: T2, Cynomolgus Serum Albumin
Assay: ELISA on immobilized cynomolgus albumin
Method: as §1

Row | binding result | Binder
55 | no binding (tested: 667 nM) | B8
